Results taken from paper PMC7570871, “Evaluation of a New ^177Lu-Labeled Somatostatin Analog for the Treatment of Tumors Expressing Somatostatin Receptor Subtypes 2 and 5” (Molecules, 2020).
Read-outs that look alike come from different tables or passages of the source.

Experiments:
human SST2 [1] = biological target: T1, human SST2 (Homo sapiens, UniProt P30874); assay: Competition binding assay with 125I-SS-14 on membranes of HEK-SST2 cells; conditions: 125I-SS-14 radioligand
T1 construct: expressed in transfected cells; host or cells: HEK cells (HEK-SST2), stably transfected
T1 sequence (P30874 whole entry): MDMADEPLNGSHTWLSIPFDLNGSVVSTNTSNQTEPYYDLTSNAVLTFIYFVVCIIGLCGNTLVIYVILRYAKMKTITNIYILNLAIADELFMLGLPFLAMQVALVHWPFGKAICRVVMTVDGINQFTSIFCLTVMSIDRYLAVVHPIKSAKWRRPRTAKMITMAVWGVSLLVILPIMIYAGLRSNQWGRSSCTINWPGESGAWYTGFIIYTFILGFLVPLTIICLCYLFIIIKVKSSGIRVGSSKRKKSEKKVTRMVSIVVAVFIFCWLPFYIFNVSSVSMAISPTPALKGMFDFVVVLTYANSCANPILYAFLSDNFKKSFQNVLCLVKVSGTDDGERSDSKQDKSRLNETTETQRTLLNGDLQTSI
Description: Human Embryonic Kidney (HEK) cells were stably transfected with plasmids encoding the human SST2 and SST5 (HEK-SST2 and HEK-SST5) and cultivated as previously described. […] Nontransfected HEK cells were used as negative control.
Binding assays were performed as described previously.

human SST2 [2] = biological target: T1, human SST2; set-up: method as in PMID 32757150; conditions: HEK-SST2 membranes, 125I-SS-14 radioligand; cited from earlier work
[3] = system: dual SST2- and SST5-expressing xenografts; conditions: use of basic amino acids; reference not given; cited from earlier work

Row | Molecule | IC50 (human SST2 [2]) | further results
1 | CC(C)[C@@H]1NC(=O)[C@H](CCCCN)NC(=O)[C@@H](Cc2c[nH]c3ccccc23)NC(=O)[C@H](Cc2ccc(O)c(I)c2)NC(=O)[C@@H](NC(=O)[C@@H](Cc2ccc(N)c(I)c2)NC(=O)CN2CCN(CC(=O)O)CCN(CC(=O)O)CCN(CC(=O)O)CC2)CSSC[C@@H](C(=O)N[C@H](C(N)=O)[C@@H](C)O)NC1=O [^natLu-DOTA-ST8950, metal not drawn] | – | IC50 (human SST2 [1]): 0.37 nM
2 | (4-amino-3-iodo)-D-Phe-c[Cys-(3-iodo)-Tyr-D-Trp-Lys-Val-Cys]-Thr-NH2 [ST8950] | 0.28 nM | –
3 | [^177Lu]Lu-DOTA-TATE | – | Kidney uptake reduction with basic amino acids [3]: 40%
4 | ^natGa-DOTA-NOC: natGa complex of DOTA-NOC, values from | 0.7 nM | –
